Source: US20220177599A1

Key:
[1] = molecular target: Recombinant human EpCAM monomer protein (R&D systems, cat. no. 9277-EP), conjugated with Alexa Fluor 647 (human) (UniProt P16422); assay: flow cytometry saturation binding: CAR-expressing Jurkat T cells stained with serially diluted AF647-conjugated EpCAM, MFI fitted with the one-site nonlinear regression model
[2] = molecular target: Recombinant human EpCAM monomer protein (R&D systems, cat. no. 9277-EP), conjugated with Alexa Fluor 647 (human) (UniProt P16422); assay: saturation binding by flow cytometry: CAR-expressing Jurkat T cells stained with serially diluted Alexa Fluor 647-conjugated EpCAM, one-site nonlinear regression of MFI
[3] = molecular target: EpCAM on tumor cells (SK-BR3, Capan-2, HT-29, SNU-638, MKN-45, MDA-MB-231, SW-1990) (human) (UniProt P16422); assay: cell-based or functional assay
[4] = molecular target: Recombinant human EpCAM monomer protein (R&D systems, cat. no. 9277-EP), conjugated with Alexa Fluor 647 (human) (UniProt P16422); assay: saturation binding by flow cytometry on CAR-expressing Jurkat T cells with Alexa Fluor 647-conjugated EpCAM; reference is C215 CAR
[5] = molecular target: Intercellular adhesion molecule-1 (ICAM-1) on tumor cells (SNU-638, MKN-45) (human) (UniProt P05362); assay: cell-based or functional assay
Chain of UniProt P05362 (P05362 28-532): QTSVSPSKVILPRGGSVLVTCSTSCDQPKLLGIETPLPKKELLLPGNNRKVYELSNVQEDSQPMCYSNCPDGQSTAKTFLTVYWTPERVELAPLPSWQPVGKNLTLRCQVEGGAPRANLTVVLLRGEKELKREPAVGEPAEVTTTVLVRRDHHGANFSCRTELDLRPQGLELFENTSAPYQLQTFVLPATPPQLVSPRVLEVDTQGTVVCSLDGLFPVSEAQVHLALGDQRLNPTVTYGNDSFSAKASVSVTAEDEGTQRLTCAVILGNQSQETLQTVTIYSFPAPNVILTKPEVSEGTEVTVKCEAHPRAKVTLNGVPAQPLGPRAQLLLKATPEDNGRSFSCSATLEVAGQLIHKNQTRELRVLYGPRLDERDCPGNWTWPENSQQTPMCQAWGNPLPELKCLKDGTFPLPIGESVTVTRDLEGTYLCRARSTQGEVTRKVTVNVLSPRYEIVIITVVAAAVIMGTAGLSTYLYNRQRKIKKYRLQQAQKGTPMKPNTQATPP

Kd [1] [nM] | Kd [2] [nM] | fold difference of KD against C215 CAR [4] [fold] | Molecule | lysis of SNU-638 and MKN-45 wild-type cells at 48 hours (bioluminescence-based cytotoxicity assay, E:T 1:1) [3] [%] | killing of MKN-45 cells at 48 hours (bioluminescence-based cytotoxicity assay, E:T 1:1) [5] | specific lysis of SNU-638 cells at 48 hours (bioluminescence-based cytotoxicity assay, E:T 1:1) [5] [%]
3.95 | 4 |  | C215 CAR (anti-EpCAM chimeric antigen receptor with the scFv of mouse monoclonal antibody C215, CD28-CD3ζ 2nd generation backbone) |  |  | 
253 | 250 | > 60 | UBS54 CAR (anti-EpCAM chimeric antigen receptor with the scFv of monoclonal antibody UBS-54, CD28-CD3ζ 2nd generation backbone) | 90 |  | 
 |  |  | F292A CAR (ICAM-1 CAR with the LFA-1 αL I domain carrying the F292A mutation, 4-1BB-CD3ζ) (receptor, part only; not given: hinge, transmembrane, signalling domains, tag, not shown: large carriers) chain, part: VDLVFLFDGSMSLQPDEFQKILDFMKDVMKKLSNTSYQFAAVQFSTSYKTEFDFSDYVKWKDPDALLKHVKHMLLLTNTFGAINYVATEVFREELGARPDATKVLIIITDGEATDSGNIDAAKDIIRYIIGIGKHFQTKESQETLHKFASKPASEFVKILDTAEKLKDLFTELQKKIYVIE |  | 0 | 40
